Reference: patent US20020025510A1, “Screening methods based on superactivated alpha V beta 3 integrin” (priority 2000, published 2002)

Columns and labels:
[1] = biological target: integrin αvβ3 with the wild type β3 subunit, on β3-MCF7 cells (human) (UniProt P06756); assay: flow cytometry, β3-MCF7 cells stained with 5 µg/ml LM609, n=11
[2] = biological target: integrin αvβ3 modified by MT1-MMP, on β3/MT-MCF7 cells (human) (UniProt P06756); assay: flow cytometry, β3/MT-MCF7 cells stained with 5 µg/ml LM609, n=11
β3 integrin subunit = assay: Immunoprecipitation and Western blotting of the β3 integrin subunit from surface-biotinylated cells; type: cell-based, human; conditions: cells incubated with 50 μM for 48 hours; precipitated with mAb L230; 90 kDa without inhibitor
Experimental: Immunoprecipitation and Western blotting were performed as follows. Confluent cells were surface biotinylated with 0.1 mg/ml of Sulfo-NHS-LC-Biotin (Pierce, Rockford, Ill.). Where indicated, the cells were incubated prior to biotinylation with 50 μM Batimastat for 48 hours in AIM-V medium (GibcoBRL). Cells were solubilized at 10^7/ml in lysis buffer (50 mM n-octyl-(-D-glucopyranoside in 50 mM TBS, pH 7.4/1 mM CaCl2/1 mM MgCl2/1 mM PMSF/10 μg/ml leupeptin/10 μg/ml pepstatin) for one hr on ice. Insoluble material was removed by centrifugation. Supernatants were precleared for two hours at 4° C. with Protein A-Agarose (Calbiochem, La Jolla, Calif.). Precleared supernatants (100-150 μl) were incubated overnight at 4° C. with 3 μg of the indicated antibodies. The immune complexes were collected on Protein A-Agarose 15 μl of a 50% slurry) during a two hour incubation at room temperature. Following washes with washing buffer (50 mM Tris, pH 7.4/0.5 M NaCl/0.1% Tween 20), the beads were treated with 4% SDS in 125 mM Tris, pH 6.8/20% glycerol buffer, and boiled. […]

[3] = biological target: integrin αvβ3 modified by MT1-MMP, on β3/MT-MCF7 cells (human) (UniProt P06756); assay: cell-based or functional assay

Sequence of UniProt P06756 (P06756 31-1048 limits assumed, chain 1 of 2): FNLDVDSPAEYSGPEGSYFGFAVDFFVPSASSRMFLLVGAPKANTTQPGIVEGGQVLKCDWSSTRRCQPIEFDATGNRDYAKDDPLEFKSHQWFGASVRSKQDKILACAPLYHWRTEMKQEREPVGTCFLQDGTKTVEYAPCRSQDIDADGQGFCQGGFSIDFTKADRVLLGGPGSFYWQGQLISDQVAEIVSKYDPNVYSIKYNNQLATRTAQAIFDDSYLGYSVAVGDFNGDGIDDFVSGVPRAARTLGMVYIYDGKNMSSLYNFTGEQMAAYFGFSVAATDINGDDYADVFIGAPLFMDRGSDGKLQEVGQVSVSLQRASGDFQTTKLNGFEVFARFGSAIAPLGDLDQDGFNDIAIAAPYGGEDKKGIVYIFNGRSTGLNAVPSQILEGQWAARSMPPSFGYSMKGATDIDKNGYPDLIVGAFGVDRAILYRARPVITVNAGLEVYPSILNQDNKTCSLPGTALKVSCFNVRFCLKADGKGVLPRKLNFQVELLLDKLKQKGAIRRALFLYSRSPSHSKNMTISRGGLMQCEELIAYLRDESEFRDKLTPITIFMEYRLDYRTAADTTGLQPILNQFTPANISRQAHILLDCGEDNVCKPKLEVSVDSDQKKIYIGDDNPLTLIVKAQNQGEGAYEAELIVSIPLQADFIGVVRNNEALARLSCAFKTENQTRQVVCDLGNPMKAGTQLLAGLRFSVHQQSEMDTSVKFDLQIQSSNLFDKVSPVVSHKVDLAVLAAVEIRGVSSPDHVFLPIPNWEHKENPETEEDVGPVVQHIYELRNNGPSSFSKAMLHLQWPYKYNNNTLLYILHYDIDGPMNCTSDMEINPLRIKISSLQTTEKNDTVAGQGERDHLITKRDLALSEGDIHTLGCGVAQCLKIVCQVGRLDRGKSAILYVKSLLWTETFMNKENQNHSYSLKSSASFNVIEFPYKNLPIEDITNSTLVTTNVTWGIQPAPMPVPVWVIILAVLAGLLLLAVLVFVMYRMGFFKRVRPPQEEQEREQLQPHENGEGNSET
Sequence of UniProt P06756 (chain, as listed by the source limits assumed, chain 2 of 2): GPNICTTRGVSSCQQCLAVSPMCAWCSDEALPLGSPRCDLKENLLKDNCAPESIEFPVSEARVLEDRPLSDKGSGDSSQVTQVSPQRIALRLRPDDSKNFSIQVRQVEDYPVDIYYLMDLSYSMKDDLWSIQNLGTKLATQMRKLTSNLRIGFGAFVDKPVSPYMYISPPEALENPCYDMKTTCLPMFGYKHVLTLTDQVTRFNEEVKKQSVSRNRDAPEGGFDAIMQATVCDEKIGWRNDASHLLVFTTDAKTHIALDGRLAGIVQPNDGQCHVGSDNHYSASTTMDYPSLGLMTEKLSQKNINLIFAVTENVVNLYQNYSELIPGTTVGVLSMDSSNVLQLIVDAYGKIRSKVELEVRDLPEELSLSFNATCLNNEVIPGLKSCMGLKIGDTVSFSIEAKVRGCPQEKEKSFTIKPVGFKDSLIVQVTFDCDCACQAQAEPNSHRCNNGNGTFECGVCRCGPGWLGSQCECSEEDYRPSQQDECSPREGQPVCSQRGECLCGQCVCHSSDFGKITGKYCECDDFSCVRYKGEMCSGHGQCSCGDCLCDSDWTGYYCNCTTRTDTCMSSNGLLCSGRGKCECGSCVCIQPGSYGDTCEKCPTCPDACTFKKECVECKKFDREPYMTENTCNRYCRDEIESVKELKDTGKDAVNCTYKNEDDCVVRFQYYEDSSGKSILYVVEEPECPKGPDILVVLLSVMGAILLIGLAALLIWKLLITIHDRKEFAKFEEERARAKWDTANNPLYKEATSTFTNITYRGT

murine mAb LM609 specific to integrin αvβ3 (antibody)
mean fluorescence intensity [1]: 38.7 | mean fluorescence intensity [2]: 35.5

CNC(=O)[C@H](Cc1ccccc1)NC(=O)[C@H](CC(C)C)[C@H](CSc1cccs1)C(=O)NO [Batimastat]
Apparent molecular mass of the β3 integrin subunit from β3/MT-MCF7 cells (β3 integrin subunit): 95 kDa

vitronectin (from UniProt P04004 20-478) (ligand)
cells migrating to the vitronectin-coated membrane undersurface (Transwell, 48 hours) [3]: 23300 cells
